Substrate in data set [1]: CC(C)=CCOP(=O)(O)OP(=O)(O)O
As to the kind of experiment: HPLC assay of artepillin C formation; non-linear least-squares fit. The data set is classed as biochemical, Artemisia capillaris. Conditions: N. benthamiana microsomes, 0.5 mM drupanin, 10 mM MgCl2, 30 °C, 20 min, 12.5-200 µM DMAPP, mean ± SE.

Substrate in data set [2]: CC(C)=CCc1cc(/C=C/C(=O)O)ccc1O
Described as above. The data set is classed as biochemical, Artemisia capillaris. The note with it: N. benthamiana microsomes, 0.5 mM DMAPP, 10 mM MgCl2, 30 °C, 20 min, 15.6-250 µM drupanin, mean ± SE.

The text below walks through data of PMC6802118, “Isolation of Artemisia capillaris membrane-bound di-prenyltransferase for phenylpropanoids and redesign of artepillin C in yeast” (Communications Biology, 2019).

As a reminder, the Km is the substrate concentration at which the rate is half of its maximum.

B1: AcPT1 (Artemisia capillaris) (protein)
chain: ISKVENNVSAQFQRRGYKNHFGQSLHEPLSLQKMDEEKFKLNAASTNNPQFDATHDLVKPTESVISFLEVLFRFIRPYAAVGTVLCIASMSLLTVEKLSDFSPLFFMKVLQALVGAMFMQMWVCGINQICDIELDKINKPSLPLASGELSMTTAITVSALSAIMSFSIGWIASPALFWGFVGWFVVGTAYSANLPWLRWKRFPLTSAFYMLCSRALVVPIGYYLHMQKSIHGGSALLSRPILFAVGMLSAFCISTIFFKDIPDIEGDRMHGIKSLAITLGEKRTFWMCIWILEIAYVAAAFFGATSPITWSKYITVISHLAMALALWTRAKSTDVKNKDAVQSMYYFLWQLFFAEYGLIALVR
notes: full CDS, 401 aa incl. predicted 38-aa plastid transit peptide; untagged (pGWB502, 35S promoter); transient expression in Nicotiana benthamiana leaves; microsomes
For the protein B1, the results for the Km in data set [1] and in data set [2] were 130 ± 20 µM and 50 ± 5 µM, respectively.
